pIC50: −log10 of the molar value.

Data on 11 substances can be found in patent US20120100140A1.

Assay [1] deals with CD64 (FcγRI) (UniProt P12314). As to the kind of experiment: solution affinity SPR: inhibition of CD64 binding to immobilized IgG1 MAb.
For assay [2], the target named is CD16 (FcγRIIIa V158) (UniProt P08637). As to the kind of experiment: solution affinity SPR: inhibition of CD16 binding to immobilized IgG1 MAb.
Assay [3] has as its target CD64 (FcγRI) (UniProt P12314). In words: solution affinity SPR: antibody titrated into CD64, inhibition of CD64 binding to immobilized IgG1 MAb; average of two titrations.
Assay [4] deals with CD16 (FcγRIIIa V158) (UniProt P08637). As to the kind of experiment: solution affinity SPR: antibody titrated into CD16, inhibition of CD16 binding to immobilized IgG1 MAb; average of two titrations.
The target in assay [5] is CD32a (UniProt P12318). In words: solution affinity SPR: inhibition of CD32a binding to immobilized IgG1 MAb.
Sequence of CD32a (P12318 34-217 limits assumed): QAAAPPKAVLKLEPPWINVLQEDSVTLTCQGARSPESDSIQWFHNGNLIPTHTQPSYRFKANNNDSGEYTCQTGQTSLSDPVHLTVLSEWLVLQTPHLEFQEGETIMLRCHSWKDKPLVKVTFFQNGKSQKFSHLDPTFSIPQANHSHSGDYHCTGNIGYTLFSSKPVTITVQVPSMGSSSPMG

Sequence of CD64 (FcγRI) (P12314 16-288 limits assumed): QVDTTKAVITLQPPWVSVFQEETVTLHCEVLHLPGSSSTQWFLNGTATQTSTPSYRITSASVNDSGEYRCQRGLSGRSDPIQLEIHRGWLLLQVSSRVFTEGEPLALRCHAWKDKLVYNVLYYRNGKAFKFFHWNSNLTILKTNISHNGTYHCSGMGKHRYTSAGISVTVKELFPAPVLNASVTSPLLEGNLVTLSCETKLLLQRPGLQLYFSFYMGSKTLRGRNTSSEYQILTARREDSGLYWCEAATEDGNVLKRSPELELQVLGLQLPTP
Sequence of CD16 (FcγRIIIa V158) (P08637 17-208 F176V limits assumed): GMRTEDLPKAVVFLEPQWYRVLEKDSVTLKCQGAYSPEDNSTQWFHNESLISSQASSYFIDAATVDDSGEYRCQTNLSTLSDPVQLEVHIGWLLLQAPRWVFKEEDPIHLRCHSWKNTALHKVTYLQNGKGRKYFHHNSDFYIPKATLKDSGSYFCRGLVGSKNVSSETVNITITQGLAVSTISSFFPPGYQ

For “EAG2377 (hu5c8 aglycosylated IgG1 T299N) (antibody)”, the pIC50 in assay [1] is 3.23.

Turning to “EAG2390 (hu5c8 aglycosylated IgG1 T299P) (antibody)”, the pIC50 in assay [1] was 3.41. This pIC50 and that of the substance before are within 0.2 log units of each other. With “CN578 (hu5c8 aglycosylated IgG1 T299K) (antibody)”, the pIC50 in assay [2] was 2.88; in assay [3] it was 2.85. In the case of “EAG2476 (YC406-Fc; agly IgG4-Fc T299K, T307P, L309K, D399S, no Fab) (from UniProt P01861 99-325)”, the pIC50 in assay [2] was 2.88. In the case of “IgG1 T299A (hu5c8 aglycosylated IgG1) (antibody)”, the pIC50 in assay [3] was 3.69. As for “EAG2378 (hu5c8 aglycosylated IgG1 T299R) (antibody)”, the pIC50 in assay [1] is 2.22. With “IgG1 control antibody (hu5c8 wild-type glycosylated IgG1)”, the pIC50 in assay [2] was 3.98; in assay [3], 5.02; in assay [4] it was 4.00. Consider “EAG2379 (hu5c8 aglycosylated IgG1 T299E) (antibody)”, for which the pIC50 in assay [1] was 3.71; in assay [5] it was 2.89.

In assay [1], “EAG2380 (hu5c8 aglycosylated IgG1 T299F) (antibody)” had a negative logarithm of the IC50 (pIC50) of 3.46.

Consider “EAG2478 (CN578-Fc; agly IgG1 Fc T299K, no Fab) (from UniProt P0DOX5 218-448)”, for which the pIC50 in assay [2] was 2.22. For the substance “EAG2389 (hu5c8 aglycosylated IgG1 T299Q) (antibody)”, in assay [1], the pIC50 was 3.34.
